For two molecules, Kd results are on record in publication PMC8282340 (2021).

Common to all, as to assay: FP
Experiment [1] deals with B4-2.
For experiment [2], the target named is B1-3.
For experiment [3], the target named is B2-1.
Experiment [4] concerns the target B3-1.
Experiment [5] deals with human BCL-2 fused to the N-terminal half of T7 RNAP (human).
The next experiment deals with GST only (Schistosoma japonicum).
For experiment [6], the target named is L3-1.
Experiment [7] addresses L3-3.
For experiment [8], the target named is L4-3.
In experiment [9] the target is T1, hsMCL-1 variant L1-1 (human, UniProt Q07820).
Experiment [10] addresses L3-1. The source holds these as a separate data set.
For experiment [11], the target named is L3-3. The source holds these as a separate data set.
In experiment [12] the target is L4-3. The source holds these as a separate data set.
Experiment [13] deals with T1, hsMCL-1 variant L1-1. This is another data set of the same source.
Experiment [14] concerns the target B4-2. The source holds these as a separate data set.
The target in experiment [15] is B1-3. The source holds these as a separate data set.
Experiment [16] addresses B2-1. The source holds these as a separate data set.
Experiment [17] deals with B3-1. The source holds these as a separate data set.

Where two headings read alike, the source gives them in different places. A value given as a limit tells only on which side of the number the result lay.

Sequence of human BCL-2 fused to the N-terminal half of T7 RNAP (human) (chain, as listed by the source): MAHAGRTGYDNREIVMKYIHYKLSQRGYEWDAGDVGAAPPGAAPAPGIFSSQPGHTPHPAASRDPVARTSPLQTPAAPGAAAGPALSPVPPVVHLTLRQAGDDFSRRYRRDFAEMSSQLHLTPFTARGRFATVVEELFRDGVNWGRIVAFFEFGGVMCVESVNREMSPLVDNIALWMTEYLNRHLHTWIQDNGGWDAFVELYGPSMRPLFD

B1: fluorescent BID peptide (peptide)
chain: QEDIIRNIARHLAQVGDSMDR
HELM: PEPTIDE1{[O=C1OC2(c3ccc(O)cc3Oc3cc(O)ccc32)c2ccc(C(=O)[*:2])cc21].[O=C(CCCCCN[*:1])[*:2]].Q.E.D.I.I.R.N.I.A.R.H.L.A.Q.V.G.D.S.M.D.R.[am]}$$$$V2.0
SMILES: CC[C@H](C)[C@H](NC(=O)[C@H](CC(N)=O)NC(=O)[C@H](CCCNC(=N)N)NC(=O)[C@@H](NC(=O)[C@@H](NC(=O)[C@H](CC(=O)O)NC(=O)[C@H](CCC(=O)O)NC(=O)[C@H](CCC(N)=O)NC(=O)CCCCCNC(=O)c1ccc2c(c1)C(=O)OC21c2ccc(O)cc2Oc2cc(O)ccc21)[C@@H](C)CC)[C@@H](C)CC)C(=O)N[C@@H](C)C(=O)N[C@@H](CCCNC(=N)N)C(=O)N[C@@H](Cc1c[nH]cn1)C(=O)N[C@@H](CC(C)C)C(=O)N[C@@H](C)C(=O)N[C@@H](CCC(N)=O)C(=O)N[C@H](C(=O)NCC(=O)N[C@@H](CC(=O)O)C(=O)N[C@@H](CO)C(=O)N[C@@H](CCSC)C(=O)N[C@@H](CC(=O)O)C(=O)N[C@@H](CCCNC(=N)N)C(N)=O)C(C)C
On to B1, for which the Kd (in general, the equilibrium constant for the complex coming apart) is 5.16 nM with B4-2 [1]; 7.21 nM with B1-3 [2]; 43.3 nM in the experiment with B2-1 [3]; 33.4 nM in the experiment with B3-1 [4]; 87.6 nM in experiment [5]; above 1000 nM with GST only. Moreover, the Kd with L3-1 [6] is 25.3 nM; with L3-3 [7] it was 9.29 nM; with L4-3 [8], 18.7 nM; with hsMCL-1 variant L1-1 [9] it was 5.38 nM.

B2: fluorescent NOXA peptide (peptide)
chain: AELEVECATQLRRFGDKLNFRQKLL
HELM: PEPTIDE1{[O=C1OC2(c3ccc(O)cc3Oc3cc(O)ccc32)c2ccc(C(=O)[*:2])cc21].[O=C(CCCCCN[*:1])[*:2]].A.E.L.E.V.E.C.A.T.Q.L.R.R.F.G.D.K.L.N.F.R.Q.K.L.L.[am]}$$$$V2.0
SMILES: CC(C)C[C@H](NC(=O)[C@H](CC(C)C)NC(=O)[C@H](CCCCN)NC(=O)[C@H](CCC(N)=O)NC(=O)[C@H](CCCNC(=N)N)NC(=O)[C@H](Cc1ccccc1)NC(=O)[C@H](CC(N)=O)NC(=O)[C@H](CC(C)C)NC(=O)[C@H](CCCCN)NC(=O)[C@H](CC(=O)O)NC(=O)CNC(=O)[C@H](Cc1ccccc1)NC(=O)[C@H](CCCNC(=N)N)NC(=O)[C@H](CCCNC(=N)N)NC(=O)[C@H](CC(C)C)NC(=O)[C@H](CCC(N)=O)NC(=O)[C@@H](NC(=O)[C@H](C)NC(=O)[C@H](CS)NC(=O)[C@H](CCC(=O)O)NC(=O)[C@@H](NC(=O)[C@H](CCC(=O)O)NC(=O)[C@H](CC(C)C)NC(=O)[C@H](CCC(=O)O)NC(=O)[C@H](C)NC(=O)CCCCCNC(=O)c1ccc2c(c1)C(=O)OC21c2ccc(O)cc2Oc2cc(O)ccc21)C(C)C)[C@@H](C)O)C(N)=O
On to B2, for which the dissociation constant (Kd) with L3-1 [10] is 949 nM; with L3-3 [11], above 1000 nM; in the experiment with L4-3 [12], above 1000 nM; with hsMCL-1 variant L1-1 [13], 489 nM; in experiment [5], 948 nM; with GST only it was above 1000 nM. For the same molecule, the Kd with B4-2 [14] amounted to 186 nM; with B1-3 [15], 137 nM; with B2-1 [16] it was 340 nM; with B3-1 [17], 53.4 nM.
